This is an account of results in patent US20200157542, “Bispecific Aptamer for Treating Cancer” (Augusta University Research Institute, Inc., published 2020).

Series [1] has as its target T1, EpCAM (human, UniProt P16422 P16422:24-265).
T1 sequence: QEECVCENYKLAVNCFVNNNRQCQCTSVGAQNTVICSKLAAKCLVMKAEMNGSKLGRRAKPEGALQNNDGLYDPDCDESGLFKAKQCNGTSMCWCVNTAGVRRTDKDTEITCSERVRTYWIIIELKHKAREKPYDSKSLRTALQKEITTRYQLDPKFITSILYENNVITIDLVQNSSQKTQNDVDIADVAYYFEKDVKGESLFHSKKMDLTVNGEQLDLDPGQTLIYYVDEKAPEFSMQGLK
The experiment in a line: ELONA; bridging of 1 uM free EpCAM to plate-immobilized CD44; simple mixture of the two aptamers gave background only. The note with it: tags: Thermo Fisher Scientific; label: 3'-Cy5 on EpCAM strand for flow cytometry; two aptamers joined by 23 bp dsRNA adaptor with 2-3 unpaired base linkers. How it is done: Serially diluted recombinant human CD44 protein (0-500 nM) was loaded into 96-well microtiter plates at 50 μg/well in triplicates and incubated overnight at 4° C. Plates were further blocked with 5% BSA/sperm DNA (500 μg/ml)/yeast tRNA (500 μg/ml)/0.05% Tween-20 in PBS/T buffer overnight. CD44-EpCAM conjugates or simply mixed CD44 and EpCAM aptamers were incubated with 1 μM recombinant human EpCAM for 4 h at room temperature. For simply mixed CD44 and EpCAM, prior putting CD44 and EpCAM aptamers together, CD44 aptamer was blocked with ssDNA (5′-[…]-3′) (SEQ ID NO: 11). […] Detection of HRP was performed by incubating with 100 µL/well soluble Turbo TMB-ELISA substrate for 5 min, then reaction was quenched with 100 μl/well Stop solution and the absorbance at 450 nm was measured using TECAN Infinite M 200 plate reader.
The binding of bispecific CD44-EpCAM aptamer was examined by ELISA (FIG. 1B). […] As expected (FIG. 1C), CD44-EpCAM bispecific aptamers successfully linked to plate-immobilized CD44 protein and free EpCAM proteins, yielding CD44 protein concentration-dependent positive signals, whereas only the background signal was detected in a control experiment with a simple mixture of CD44 aptamer and EpCAM aptamer. […]
(In general: In flow cytometry, cells or beads pass a laser one at a time.)

Series [2] deals with human serum albumin (HSA) (human, UniProt P02768 P02768:25-609). The series is described as follows: ELONA; immobilized HSA control, no positive signal. As to conditions: label: 3'-Cy5 on EpCAM strand for flow cytometry; two aptamers joined by 23 bp dsRNA adaptor with 2-3 unpaired base linkers.
Sequence of human serum albumin (HSA) (P02768 25-609, one chain of several): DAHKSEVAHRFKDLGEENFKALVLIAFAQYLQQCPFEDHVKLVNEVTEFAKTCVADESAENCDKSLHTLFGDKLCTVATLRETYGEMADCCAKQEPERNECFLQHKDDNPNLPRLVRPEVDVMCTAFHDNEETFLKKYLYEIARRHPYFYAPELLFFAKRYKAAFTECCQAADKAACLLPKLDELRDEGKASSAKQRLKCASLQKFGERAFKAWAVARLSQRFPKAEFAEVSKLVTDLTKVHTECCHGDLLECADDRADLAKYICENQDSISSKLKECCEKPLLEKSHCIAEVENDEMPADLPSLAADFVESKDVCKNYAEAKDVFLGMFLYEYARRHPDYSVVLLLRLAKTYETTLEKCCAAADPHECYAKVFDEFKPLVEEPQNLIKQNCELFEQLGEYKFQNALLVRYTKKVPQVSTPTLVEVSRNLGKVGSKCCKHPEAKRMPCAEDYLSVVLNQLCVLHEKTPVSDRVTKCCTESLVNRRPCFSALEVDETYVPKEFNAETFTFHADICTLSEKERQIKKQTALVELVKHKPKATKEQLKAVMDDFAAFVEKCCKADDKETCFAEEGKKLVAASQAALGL

B1: CD44-EpCAM bispecific aptamer (ssRNA)
RNA 1: GGGAUGGAUCCAAGCUUACUGGCAUCUGGAUUUGCGCGUGCCAGAAUAAAGAGUAUAACGUGUGAAUGGGAAGCUUCGAUAGGAAUUCGGAAAAGCUUGUUCAGGAGAUGAAAUU
RNA 2: GCGACUGGUUACCCGGUCGUAAAAUUUCAUCUCCUGAACAAGCUU
modifications: RNA (U for T in printed DNA template), 2'-F pyrimidines throughout
Regarding B1, the results for the binding result in series [1] and in series [2] were “binds” and “no binding”, respectively.
